In this assay the target is LexA/Bax fusion protein (murine) (UniProt P0A7C2).

With B42/Mcl-1 hybrid, the colony formation of yeast cotransformed with LexA/Bax, galactose medium (neutralization of Bax activity) was 290.

The substance B42/Bcl-2(1-81) hybrid displayed a colony formation of yeast cotransformed with LexA/Bax, galactose medium (neutralization of Bax activity) of 19.

Take B42/Bcl-2(83-218) hybrid: the colony formation of yeast cotransformed with LexA/Bax, galactose medium (neutralization of Bax activity) was found to be 16.

Regarding B42/Bcl-X-L hybrid, the colony formation of yeast cotransformed with LexA/Bax, galactose medium (neutralization of Bax activity) was 300.

As for B42/Bcl-2(1-218) hybrid, the colony formation of yeast cotransformed with LexA/Bax, galactose medium (neutralization of Bax activity) came to 280.

Substance B42/Lamin registered a colony formation of yeast cotransformed with LexA/Bax, galactose medium (neutralization of Bax activity) of 8.

In the case of B42/Bcl-X-S hybrid, the colony formation of yeast cotransformed with LexA/Bax, galactose medium (neutralization of Bax activity) is 10.

The record behind these values is patent US5702897.
